The labels stand for the following.
B1: Mannan-binding lectin serine protease 2 (Homo sapiens), O00187-2 (parent)
chain: MRLLTLLGLLCGSVATPLGPKWPEPVFGRLASPGFPGEYANDQERRWTLTAPPGYRLRLYFTHFDLELSHLCEYDFVKLSSGAKVLATLCGQESTDTERAPGKDTFYSLGSSLDITFRSDYSNEKPFTGFEAFYAAEDIDECQVAPGEAPTCDHHCHNHLGGFYCSCRAGYVLHRNKRTCSEQSL

Test [1] covers variants of B1. As to conditions: with mbl2_human MBL2, P11226.
In test [2] the parent is B1. The conditions noted are these: with fcn2_human FCN2, Q15485.
Chain of fcn2_human FCN2, Q15485 (Q15485 whole entry): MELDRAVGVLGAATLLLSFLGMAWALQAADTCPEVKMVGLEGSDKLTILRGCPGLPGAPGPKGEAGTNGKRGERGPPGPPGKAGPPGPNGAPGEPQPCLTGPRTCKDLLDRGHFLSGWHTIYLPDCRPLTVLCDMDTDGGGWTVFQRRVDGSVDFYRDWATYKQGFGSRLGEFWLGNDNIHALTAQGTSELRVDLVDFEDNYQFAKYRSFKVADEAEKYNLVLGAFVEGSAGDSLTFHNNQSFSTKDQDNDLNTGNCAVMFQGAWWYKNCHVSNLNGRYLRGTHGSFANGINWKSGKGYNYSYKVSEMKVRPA

Chain of mbl2_human MBL2, P11226 (P11226 whole entry): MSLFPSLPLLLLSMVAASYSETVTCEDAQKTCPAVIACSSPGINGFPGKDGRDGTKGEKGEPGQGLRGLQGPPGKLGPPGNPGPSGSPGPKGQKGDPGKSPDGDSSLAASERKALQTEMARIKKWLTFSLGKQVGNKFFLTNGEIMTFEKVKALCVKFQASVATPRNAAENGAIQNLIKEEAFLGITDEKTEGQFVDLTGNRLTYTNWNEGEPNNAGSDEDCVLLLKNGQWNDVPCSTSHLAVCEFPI

For MRLLTLLGLLCGSVATPLGPKWPEPVFGRLASPGFPGEYANDQERRWTLTAPPGYRLRLYFTHFDLELSHLCEADFVKLSSGAKVLATLCGQESTDTERAPGKDTFYSLGSSLDITFRSDYSNEKPFTGFEAFYAAEDIDECQVAPGEAPTCDHHCHNHLGGFYCSCRAGYVLHRNKRTCSEQSL, the “effect of a mutation on the interaction” value in test [1] and in test [2] was “disrupting interaction strength” each time.
In the case of MRLLTLLGLLCGSVATPLGPKWPEPVFGRLASPGFPGEYANDQERRWTLTAPPGYRLRLYFTHFDLELSHLCEYDFVKLSSGAKVLATLCGQESTDTERAPGKDTFYSLGSSLDITFRSDYSNAKPFTGFEAFYAAEDIDECQVAPGEAPTCDHHCHNHLGGFYCSCRAGYVLHRNKRTCSEQSL, the “effect of a mutation on the interaction” value in test [1] is listed as “decreasing interaction strength”; in test [2] it was “with no effect”.
The matching figures for MRLLTLLGLLCGSVATPLGPKWPEPVFGRLASPGFPGEYANDQERRWTLTAPPGYRLRLYFTHFDLELSHLCEYDFVKLSSGAKVLATLCGQESTDTERAPGKDTFYSLGSSLDITFRSDASNEKPFTGFEAFYAAEDIDECQVAPGEAPTCDHHCHNHLGGFYCSCRAGYVLHRNKRTCSEQSL: “disrupting interaction strength” and “disrupting interaction strength”.
In the case of MRLLTLLGLLCGSVATPLGPKWPEPVFGRLASPGFPGEYANDQERRWTLTAPPGYRLRLYFTHFDLELSHLCEYDFVKLSSGAKVLATLCGQESTDTERAPGKDTFYSLGSSLDITFRSGYSNEKPFTGFEAFYAAEDIDECQVAPGEAPTCDHHCHNHLGGFYCSCRAGYVLHRNKRTCSEQSL, the “effect of a mutation on the interaction” value in test [1] and in test [2] was “disrupting interaction strength” throughout.
Turning to MRLLTLLGLLCGSVATPLGPKWPEPVFGRLASPGFPGEYANDQERRWTLTAPPGYRLRLYFTHFDLELSHLCEYDFVKLSSGAKVLATLCGQQSTDTERAPGKDTFYSLGSSLDITFRSDYSNEKPFTGFEAFYAAEDIDECQVAPGEAPTCDHHCHNHLGGFYCSCRAGYVLHRNKRTCSEQSL, the “effect of a mutation on the interaction” value in test [1] and in test [2] was “with no effect” in each case.

For the origin of these results see IntAct's records for PubMed 15117939.
